From the nanobody polyreactivity screen of Harvey et al. (2022)

Test: yeast display, Sf9 membrane polyspecificity reagent, FACS + sequencing; frameworks hold sequencing errors
Procedure, shortened: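 In a synthetic yeast display library (Saccharomyces cerevisiae BJ5465), nanobody expression was induced with galactose for 36–48 hours. FACS gates were set low and high (top ~1%) using anti-HA fluorescence for expression and streptavidin fluorescence for binding of the Sf9 membrane reagent. Each polyreactivity label is drawn from the gate of origin.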

QVQLVESGGGLVQAGGSLRLSCAASGIILGDYAMGWYRQAPGKERELVAAITSTGGRTYYADSVKGRFTISRDNAKNTVYLQMNSLKPEDTAVYYCAAQGSYRRYRPYYYWGQGTQVTVSS
polyreactivity (PSR sort gate): high polyreactivity

QVQLVESGGGLVQAGGSLRLSCAASGIILGVYAMGWYRQAPGKEREFVAAITSSGGSTYYADSVKGRFTISRDNAKNTVYLQMNSLKPEDTAVYYCAADFDTSVRLYGPTRYDYWGQGTQVTVSS
polyreactivity (PSR sort gate): low polyreactivity

QVQLVESGGGLVQAGGSLRLSCAASGIILNYYAMGWYRQAPGKERELVAAISSGGTTYYADSVKGRFTISRDNAKNTVYLQMNSLKPEDTAVYYCNADYLYSRGGDWRWWDMDYWGQGTQVTVSS
polyreactivity (PSR sort gate): low polyreactivity

QVQLVESGGGLVQAGGSLRLSCAASGIILPYYAMGWYRQAPGKEREFVATISSDGTSTYYADSVKGRFTISRDNAKNTVYLQMNSLKPEDTAVYDCAARIRQNPGGDNSWGQGTQVTVSS
polyreactivity (PSR sort gate): low polyreactivity

QVQLVESGGGLVQAGGSLRLSCAASGIILRRYAMGWYRQAPGKERELVAAISSRGGSTYYADSVKGRFTISRDNAKNTVYLQMNSLKPEDTAVYYCANRPYGRSGGSRYDYWGQGTQVTVSS
polyreactivity (PSR sort gate): high polyreactivity

QVQLVESGGGLVQAGGSLRLSCAASGIILRYYAMGWYRQAPGKERELVAAISGSGTRTYYADSVKGRFTISRDNAKNTVYLQMNSLKPEDTAVYYCAALVWGGYDYWGQGTQVTVSS
polyreactivity (PSR sort gate): high polyreactivity

QVQLVESGGGLVQAGGSLRLSCAASGIILYGYAMGWYRQAPGKERELVAAISRRGGITYYADSVKGRFTISRDNAKNTVYLQMNSLKPEDTAVYYCAADWYGYRQFHGYYWGQGTQVTVSS
polyreactivity (PSR sort gate): high polyreactivity

QVQLVESGGGLVQAGGSLRLSCAASGIILYPYAMGWYRQAPGKERELVAAISWSGGSTYYADSVKGRFTISRDNAKNTVYLQMNSLKPEDTAVYYCAARPRRRYYGYDSWGQGTQVTVSS
polyreactivity (PSR sort gate): high polyreactivity

QVQLVESGGGLVQAGGSLRLSCAASGIILYRYAMGWYRPAPGKERELVAAISRSGGNTYYADSVKGRFTISRDNAKNTVYLQMNSLKPEDTAVYYCAAKPLQGVRRVEYWGQGTQVTVSS
polyreactivity (PSR sort gate): high polyreactivity

QVQLVESGGGLVQAGGSLRLSCAASGIILYYYAMGRYRPAPGKERELVASISRGDSTNYADSVKGRFTISRDNAKNTVYLQMNSLIPEDTAVYCNKDYLPSLYRGFDYWGQGTQVTVSS
polyreactivity (PSR sort gate): low polyreactivity

QVQLVESGGGLVQAGGSLRLSCAASGIILYYYAMGWYRQAPGKERELVAAISSGGNTYYADSVKGRFTISRDNAKNTVYLQMTSLKPEDTAVYYCAAVTVIGGEYDYWGQGTQVTVSS
polyreactivity (PSR sort gate): low polyreactivity

QVQLVESGGGLVQAGGSLRLSCAASGIISAHYAMGWYRQAPGKERELVAAISSSGGSTYYADSVKGRFTISRDNAKNTVYLQMNSLKPEDTAVYYCNAEFYWGYDYWGQGTQVTVSS
polyreactivity (PSR sort gate): low polyreactivity

QVQLVESGGGLVQAGGSLRLSCAASGIISGDYAMGWYRQAPGKERELVARITSGDSTNYADSVKGRFTISRDNAKNTVYLQMNSLNPEDTAVYYCAADRVWAYWTYGYWGQGTQVTVSS
polyreactivity (PSR sort gate): low polyreactivity

QVQLVESGGGLVQAGGSLRLSCAASGIISGEYAMGWYRQAPGKERELVAAIDYSGVSTYYADSVKGRFTISRDNAKNTVYLQMNSLKPEDTAVNYCAAYPSSEYDYWGQGTQVTVSS
polyreactivity (PSR sort gate): low polyreactivity

QVQLVESGGGLVQAGGSLRLSCAASGIISPFYAMGWYRQATGKERELVADISTGGTTTYADSVKGRFTISRDNAKNTVYLQLNSLKPEDTAVYYCNAEVSLTYYWIVWASYDYWGQGTQVTVSS
polyreactivity (PSR sort gate): low polyreactivity

QVQLVESGGGLVQAGGSLRLSCAASGIISRVYAMGWYRQAPGKERELVAAISGSGGTTYYADSVKGRFTISRDNAKNTVYLQMNSLKPEDTAVYYCAARYKALYDYWGQGTQVTVSS
polyreactivity (PSR sort gate): high polyreactivity

QVQLVESGGGLVQAGGSLRLSCAASGIISSVYAMGWYRPAPGKERELVAAISGSGGSTYYADSVKGRFTISRDNAKNTVYLQMNSLKAEDTAVYYCAKGYQYQGNSYGYWGQGTQVTVSS
polyreactivity (PSR sort gate): low polyreactivity

QVQLVESGGGLVQAGGSLRLSCAASGIIVDFYAMGWYRQAPGKERELVAGISWGGGTTYYADSVKGRFTISRDNAKNTVYLQMNSLKPEDTAVYYCAAVAFQTRYYYWGQGTQVTVSS
polyreactivity (PSR sort gate): high polyreactivity

QVQLVESGGGLVQAGGSLRLSCAASGIIVDYYAMGWYRQAPGKERELVATITSGGSTNYADSVKGRFTISRDNAKNTVYLPMNSVKPEDTAVYYCAARTYWFPDIYPGLGMDYWGQGTQVTVSS
polyreactivity (PSR sort gate): low polyreactivity

QVQLVESGGGLVQAGGSLRLSCAASGIIYIGNAMGWYRQAPGKERELVAAITYTGGSTYYADSVKGRFTISRDNAKNTVYLQMNSLKPEDTAVYYCDFDRTHLEDDYWGQGTQVTVSS
polyreactivity (PSR sort gate): low polyreactivity

QVQLVESGGGLVQAGGSLRLSCAASGIIYTTNAMGWYRQAPGKERELVAAIRRSGSTYYADSVKGRFTISRDNAKNNVYLQMNSLKPEDTAVYYCNAKVHYGSRGDYWGQGTQLTVSS
polyreactivity (PSR sort gate): low polyreactivity

QVQLVESGGGLVQAGGSLRLSCAASGIIYYLYAMGWYRHAPGKERELVATISRRGGSTYYADSVKGRFTISRDNAKNTVYLQMNSLKPEDTAVYYCATGHYSVGRSFSSGSYEYWGQGTQVTVSS
polyreactivity (PSR sort gate): high polyreactivity

QVQLVESGGGLVQAGGSLRLSCAASGILFGPYAKGWYRQAPGKERELVAVISGSGGSTNYADSVKGRFTISRDNGKYTVYLQMNSLKPEVTAVYYCAADSLSKVCYYYWGEGTQVTVSS
polyreactivity (PSR sort gate): low polyreactivity

QVQLVESGGGLVQAGGSLRLSCAASGILFYLNAMGWYRQAPGKERELVASISTGGGTNYADSVKGRFTISRDYAKNTVYLQMNSLKPEDTAFYYCAAKRRNTYTLYYYWGQGTQVTVSS
polyreactivity (PSR sort gate): high polyreactivity

QVQLVESGGGLVQAGGSLRLSCAASGINFGKYAMGWYRQAPGKERELVAAITSGDSTYYADSVKGRFTISRDNAKNTVYLQMNSLKPEDTAVYYCNADAWRSQSWWHGLMEYWGQGTQVTVSS
polyreactivity (PSR sort gate): low polyreactivity

QVQLVESGGGLVQAGGSLRLSCAASGINFGSNAMGWYRQAPGKERELVAAISKRGGNTYYADSVKGRFTISRDNAKNTVYLQMNSLKPEYTAVYYCATQQYLYAQKSYVEMDYWGQGTQVSVSS
polyreactivity (PSR sort gate): high polyreactivity

QVQLVESGGGLVQAGGSLRLSCAASGINFNLYAMGWYRQAPGKERELVAAISRSGDSTNYADSVKGRFTISRDNAKNTVDLQMNSLKPEDTAVYYCAVGYRYLKWVDYWGQGTQVTVSS
polyreactivity (PSR sort gate): high polyreactivity

QVQLVESGGGLVQAGGSLRLSCAASGINFVGYAMGWDRQAPGKERELVAAISTSSRTYYADSVKGRFTISRDNAKNTVYIQMNSLKPEDTAVYYCNARGTRWYYRHDYWGQGTQVTVSS
polyreactivity (PSR sort gate): high polyreactivity

QVQLVESGGGLVQAGGSLRLSCAASGINFVKYTMGWYRQAPGKERELVAAITWTVGSTYYADSVKGRFTISRDNAKNTVYFQMNSLKPEDTAVYYCAARYYYWGQGTQVTGSS
polyreactivity (PSR sort gate): high polyreactivity

QVQLVESGGGLVQAGGSLRLSCAASGINIRYYAMGWYRQAPGKERELVADITTGGTTYYADSVKGRFTISRDNAKNTVYLQMNSLKPEDTAVYYCAAYYFPTYSKTYIYPFDYWGQGTQVTVSS
polyreactivity (PSR sort gate): low polyreactivity

QVQLVESGGGLVQAGGSLRLSCAASGINISYYAMGWYRQAPGKEREFVAAISWSVGSTYYADSVKGRFTISRDNAKYTVYLQMNSLKPEDTAVYYCAAEDGYWPTYYYWGQGSQVTVSS
polyreactivity (PSR sort gate): high polyreactivity

QVQLVESGGGLVQAGGSLRLSCAASGINTAGYAMGWYRQAPGKERELVAAISTSGTSTYYADSVKGRFTISRDNAQNTVYLQMNSLQPEDTAVYYCAYTNYYGVGYYYWGQGTLVTVSS
polyreactivity (PSR sort gate): low polyreactivity

QVQLVESGGGLVQAGGSLRLSCAASGINYTFYAMGWYRQAPGKERELVAAISYSSGSTYADSVKGRFTISRDNAKNTVYLQMNSLKPEDTAVYYCAVDLFPGHSYTYDYWGQGTQVTVSS
polyreactivity (PSR sort gate): low polyreactivity

QVQLVESGGGLVQAGGSLRLSCAASGIQVYNAMGWYRQAPGKERELVAAISARGGRTYYADSVKGRFTISRDNAKNTVYLQMNSLKPEDTAVYYCATLETTGVNYWGQGTLVTVSS
polyreactivity (PSR sort gate): high polyreactivity

QVQLVESGGGLVQAGGSLRLSCAASGISFAIYAMGWYRQAPGKERELVAAISARGGTYYADSVKGRFTISRDNANNTVYSQMNSLKPEDTAVYYCNTDYVSRDDWDYRRYDYWGQGTQVTVSS
polyreactivity (PSR sort gate): low polyreactivity

QVQLVESGGGLVQAGGSLRLSCAASGISFNGNAMGWYRQAPGKERELVAAISGSGGSTYYADSVKGRFTISRDNAKNSVYLQMNSLKQEDTAVYYCNALYGRRVYVGYDYWGQGSQVTVSS
polyreactivity (PSR sort gate): high polyreactivity

QVQLVESGGGLVQAGGSLRLSCAASGITFADNSMGWYRQAPGKERELVAAISRGGSTYYADSVKGRFTISRDNAKNTVYLQMNSLKPEDTAVYYCAAAGWWRAWGSYLRFYGYDYWGQGTQVTVSS
polyreactivity (PSR sort gate): low polyreactivity

QVQLVESGGGLVQAGGSLRLSCAASGITFADYAMGRYRQAPGKERELVAAISSGTSTYYADSVKGRFTISPDNAKNTVYLQMNSLKPEDTAVYYFYARYWGRVPPPAYDPRRYWGQGTQVTVSS
polyreactivity (PSR sort gate): high polyreactivity

QVQLVESGGGLVQAGGSLRLSCAASGITFADYVMGWYRPAPGKERELVAAISTDGGSTYYADSVKGRFTISRDNAKNTVYLQMNSLKPEDTAVYYCASEWSYPGYEFDYWGQGTQVTVSS
polyreactivity (PSR sort gate): high polyreactivity

QVQLVESGGGLVQAGGSLRLSCAASGITFAKYAMGWYRQAPGKERELVAAISTSGGSTYYADSVKGRFTISRDNAKNTVYLQMYSLKPEDTAVYYCNVDTYIWYYLRYYNYWGQGTQVTVSS
polyreactivity (PSR sort gate): high polyreactivity

QVQLVESGGGLVQAGGSLRLSCAASGITFAPYAMGWYRQAPGKERELVAVISSGGSTKYADSVKGRFTISRDNAKNTVYLQMNSLKPEDTAVYYCAASAPRGYGYKYYYWGQGTQVTVSS
polyreactivity (PSR sort gate): high polyreactivity

QVQLVESGGGLVQAGGSLRLSCAASGITFARYTMGWYRQAPGKERELVAAISWSGTSTYYADSVKGRFTISRDNAKNTVYLQMNSLKPEDTAVYYCAAGYSASRKVDYWGQGTQVTVSS
polyreactivity (PSR sort gate): high polyreactivity

QVQLVESGGGLVQAGGSLRLSCAASGITFAYYAMGWYRQAPGKERELVAGISKSGGRTYYADSVKGRFTISRDNAKNTVYVQLNSLKPEYTAVYYCASQDARRIVYDRYYYWGQGTQVTVSS
polyreactivity (PSR sort gate): high polyreactivity
